# Reference: PMC8969299 (Chemical Engineering Journal, 2022)
# Target: SARS-CoV-2 (2019-nCoV) spike (S) protein RBD-His recombinant protein (SARS-CoV-2, UniProt P0DTC2)
# Test: FRET or BRET
binder,measurement,value
IEEQAKTFLDKFNHEAEDLFYQSSLASWK [hACE2 mimic peptide beacon (COVID19-PEB)],binding result,binds
